One experiment relates to B16LM3 tumor model. The experiment in a line: Syngeneic B16LM3 tumor model, combination with anti-PD-1 Ab. The note with it: mAb13 15 mg/kg in combination with anti-PD-1 Ab 10 mg/kg i.p., days 1, 5, 8, 12, 15; relative to No Treatment, Isotype Control or anti-PD-1 Ab. The experiment is classed as in vivo, C57BL/6 mice. Here is the method:
B16LM3 model was established in female C57BL/6 mice by subcutaneous injection of 0.5×10^6 cells into the right flank of each mouse. The day after implant mice were randomized into treatment groups (n=10 per group). Mice received treatments of either anti-mouse ENTPD2 mAb13 or a non-specific mIgG2a isotype control (clone MOPC-173, BioLegend, San Diego, Calif.) at a final dose 15 mg/kg on Day 1, 5, 8, 12, 15.
Anti-PD-1 Ab (clone RMP1-14 Bio X Cell, West Lebanon, N.H.) or non-specific rIgG2a isotype control (clone RTK2758, BioLegend, San Diego, Calif.) were delivered i.p. at a final dose of 10 mg/kg on days 1, 5, 8, 12, 15. All doses were adjusted to individual mouse body weights.

The next experiment relates to NIH/3T3 cells. As to the kind of experiment: Cross reactivity: FACS binding to NIH/3T3 control cells. Conditions: 50 nM antibody. Here is the method:
FACS screening: Specific binding of candidate antibodies to endogenously expressed ENTPD2 was assessed by flow cytometry. Cells were rinsed thoroughly with 1×PBS and treated with Accutase (Millipore #SCR005) to lift from growth plates and resuspended at approximately 1×10^5 cells/90 μL in 1× FACS buffer (2% FBS+0.1% NaN3 in PBS). In a 96-well U-bottom plate, 10 μL of 10× antibody solution in FACS buffer was pre-seeded and 90 μL of cell suspension was added. Cell were incubated for 30 minutes at 4° C., washed 1× with cold PBS and resuspended in 100 μL of 1:500 secondary antibody 1× FACS buffer (Allophycocyanin conjugated F(ab′)2 goat anti-human IgG, Fcγ specific; Jackson Immunoresearch, Cat#109-136-098). After additional incubation for 15 min at 4° C., cells were washed twice with PBS and resuspended in 100 μL of 1×FACS buffer with 4 μg/mL propidium iodide (Life Technologies, Cat#P3566). Geometric mean fluorescence intensity was calculated on live single cells using FlowJo software.
Cross reactivity Human ENTPD1 (NP_001767) expressing NIH/3T3 cells were generated using a retroviral transduction approach. 72 hrs post transduction, engineered cells were stained with the anti-Human CD39/ENTPD1 APC-conjugated Antibody (R&D systems, Minneapolis, Minn.) and live cells that expressed human ENTPD1 were separated from the rest of the population via fluorescence activated cell sorting. […]
On the technique in general: A flow cytometer gives signals particle by particle.

In another experiment the target is T1, human ENTPD2 (Homo sapiens, UniProt Q9Y5L3).
T1 construct: residues 29-462 of human or cyno ENTPD2 were cloned into expression vector; GP67 signal peptide (N); made in house; host or cells: High Five (Trichoplusia ni) insect cells, baculovirus
T1 sequence (Q9Y5L3 29-462): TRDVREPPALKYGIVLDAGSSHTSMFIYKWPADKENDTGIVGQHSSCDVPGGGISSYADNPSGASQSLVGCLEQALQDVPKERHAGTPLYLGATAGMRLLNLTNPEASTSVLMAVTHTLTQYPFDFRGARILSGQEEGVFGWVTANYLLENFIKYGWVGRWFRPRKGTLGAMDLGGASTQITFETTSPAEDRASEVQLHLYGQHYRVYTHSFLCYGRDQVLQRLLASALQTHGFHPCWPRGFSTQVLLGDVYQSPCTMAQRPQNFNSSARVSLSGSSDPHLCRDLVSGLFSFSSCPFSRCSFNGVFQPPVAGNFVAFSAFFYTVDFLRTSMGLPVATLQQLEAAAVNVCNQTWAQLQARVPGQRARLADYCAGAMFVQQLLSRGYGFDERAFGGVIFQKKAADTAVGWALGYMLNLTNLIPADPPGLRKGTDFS
The experiment in a line: Biacore (SPR) affinity to human ENTPD2 ECD. The experiment is classed as binding. Conditions: 25° C. Summed up:
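Antibodies captured via anti-human IgG Fc on CM5 chips; ENTPD2 ECD analyte associated 180 s, dissociated up to 1800 s at 30 μL/min in PBS pH 7.2 + 0.05% Tween 20. Kinetic constants from global 1:1 binding fit; fresh antibody captured after MgCl2 regeneration.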
(In SPR one partner is held on a chip, and binding of the other changes the refractive index at the surface.)

For another experiment, the target named is T2, mouse ENTPD2 (Mus musculus, UniProt O55026).
T2 construct: residues 29-462 of mouse or rat ENTPD2 (the extracellular domain); mouse IgK signal peptide (N); His6; made in house; host or cells: FreeStyle 293-F cells, transient transfection
T2 sequence (O55026 29-462): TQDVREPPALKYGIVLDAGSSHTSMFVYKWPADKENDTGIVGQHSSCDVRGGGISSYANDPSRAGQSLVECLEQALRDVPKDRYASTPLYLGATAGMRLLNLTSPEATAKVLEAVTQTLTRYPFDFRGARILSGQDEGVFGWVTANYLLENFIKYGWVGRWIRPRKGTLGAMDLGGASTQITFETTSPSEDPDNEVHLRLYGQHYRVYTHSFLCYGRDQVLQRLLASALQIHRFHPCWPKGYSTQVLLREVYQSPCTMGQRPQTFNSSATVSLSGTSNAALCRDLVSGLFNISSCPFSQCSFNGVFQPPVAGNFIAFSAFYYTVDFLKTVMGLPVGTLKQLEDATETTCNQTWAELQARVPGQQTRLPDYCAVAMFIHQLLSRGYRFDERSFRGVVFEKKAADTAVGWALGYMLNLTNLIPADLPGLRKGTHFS
The experiment in a line: Antibody specificity: binding to mouse ENTPD2. Conditions: Mouse ENTPD2. The text has this:
Antibody specificity for mAbl-mAblO was confirmed. […] Antibodies mAb8, mAb9, and mAb10 show weak affinity to mouse ENTPD2. None of the selected antibodies bind to rat ENTPD2.

B1: mAb13: anti-mouse ENTPD2 antibody; HC SEQ ID NO: 193, LC SEQ ID NO: 204 (antibody)
heavy: QVQLVQSGAELKQPGQSVKISCKASGYTFTHYGMNWVKQAPGQGLKWMGWINTDTGNPTYADDFKGRFVFSLDTSVSTAYLQISNLKNEDTATYYCVRYGTLYSGYGFFFDSWGQGTLVTVSSAKTTAPSVYPLAPVCGDTTGSSVTLGCLVKGYFPEPVTLTWNSGSLSSGVHTFPAVLQSDLYTLSSSVTVTSSTWPSQSITCNVAHPASSTKVDKKIEPRGPTIKPCPPCKCPAPNLLGGPSVFIFPPKIKDVLMISLSPIVTCVVVDVSEDDPDVQISWFVNNVEVHTAQTQTHREDYNSTLRVVSALPIQHQDWMSGKEFKCKVNNKDLPAPIERTISKPKGSVRAPQVYVLPPPEEEMTKKQVTLTCMVTDFMPEDIYVEWTNNGKTELNYKNTEPVLDSDGSYFMYSKLRVEKKNWVERNSYSCSVVHEGLHNHHTTKSFSRTPGK
light: DIMMTQSPSSLSVSAGEKATITCKSSQSLFNSNTNKNYLNWYLQKPGQSPKLLFYYASTRHTGVPDRFIGSGSGTDFTLTITSVQDEDLADYYCQQWYSYPWTFGPGTKLEIKRADAAPTVSIFPPSSEQLTSGGASVVCFLNNFYPKDINVKWKIDGSERQNGVLNSWTDQDSKDSTYSMSSTLTLTKDEYERHNSYTCEATHKTSTSPIVKSFNRNEC
Take B1: the mouse survival entry in the experiment with B16LM3 tumor model is recorded as “significantly extended mouse survival”.

B2: mAb7: humanized anti-human ENTPD2 antibody from mAb17; VH SEQ ID NO: 25, VL SEQ ID NO: 78 (antibody, V domains shown)
VH: QVQLVQSGAEVVKPGASVKISCKASGYTFTDYNMDWVKQAPGQRLEWIGDINPKYDISTYNQQFKGKATITVDKSASTAYMELSSLRSEDTAVYYCARRGFFLYYGINYYYFDVWGQGTLVTVSS
VL: EIVLTQSPATLSASPGEEITLSCSASSSVSYIHWYQQKPGQAPRLLIYSTSNLASGIPARFSGSGSGTFYTLTISSVEPEDAAVYYCHQWSSYPWTFGGGTKLEIK
As for B2, the “Apparent FACS binding at 50 nM” value with NIH/3T3 cells is reported as “No binding”. Moreover, in the experiment with human ENTPD2, the equilibrium dissociation constant (Kd) was found to be 0.9 nM, the ka is 210000 M⁻¹ s⁻¹ and the kd was found to be 0.00019 s⁻¹. In addition, the “BIACore KD” value with mouse ENTPD2 was “No binding”.

In general, Kd refers to the equilibrium constant for the complex coming apart. Read a high Kd as a looser complex.

The values above are taken from US20220348651A1, “ENTPD2 ANTIBODIES, COMBINATION THERAPIES, AND METHODS OF USING THE ANTIBODIES AND COMBINATION THERAPIES” (Novartis AG, priority 2019, published 2022).
